Test results: article PMC8385704 (Signal Transduction and Targeted Therapy, 2021)

Key:
[1] = target: T1, His-tagged recombinant human ACE2 protein (residues 19-740), dimeric (Homo sapiens, UniProt Q9BYF1); assay: BLI; details: both partners purified
T1 construct: also called hACE2-his; His-tagged human ACE2

[2] = target: T1, His-tagged recombinant human ACE2 …; assay: ELISA; 3E8 and His-tagged recombinant human ACE2 protein; who was coated is not told; details: both partners purified

T1 sequence (Q9BYF1 19-740): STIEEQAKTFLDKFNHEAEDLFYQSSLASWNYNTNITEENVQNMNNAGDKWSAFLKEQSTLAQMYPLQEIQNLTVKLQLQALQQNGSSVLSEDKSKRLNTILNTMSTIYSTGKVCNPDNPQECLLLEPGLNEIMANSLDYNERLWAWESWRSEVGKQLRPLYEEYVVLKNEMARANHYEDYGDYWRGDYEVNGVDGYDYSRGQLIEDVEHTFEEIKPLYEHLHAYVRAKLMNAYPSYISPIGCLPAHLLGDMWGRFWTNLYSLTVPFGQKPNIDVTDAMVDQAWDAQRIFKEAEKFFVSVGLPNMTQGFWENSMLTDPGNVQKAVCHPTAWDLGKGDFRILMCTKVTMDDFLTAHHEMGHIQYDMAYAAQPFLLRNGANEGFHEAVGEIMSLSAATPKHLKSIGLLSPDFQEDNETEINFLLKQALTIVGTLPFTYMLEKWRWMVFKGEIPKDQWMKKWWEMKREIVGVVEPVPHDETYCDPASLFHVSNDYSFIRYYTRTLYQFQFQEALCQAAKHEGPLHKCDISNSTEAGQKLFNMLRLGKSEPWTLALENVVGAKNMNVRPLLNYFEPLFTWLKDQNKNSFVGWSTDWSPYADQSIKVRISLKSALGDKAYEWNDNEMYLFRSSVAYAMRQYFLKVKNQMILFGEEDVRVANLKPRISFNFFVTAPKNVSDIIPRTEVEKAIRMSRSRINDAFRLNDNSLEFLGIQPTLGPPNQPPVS

B1: monoclonal antibody 3E8 (antibody, V domains shown)
VH: EVQLEESGAELVRPGASVKISCKAFGYTFTNHHINWMKQRPGQGLDWIGYVNPYNDYTKYSQNFKGKATLSVDRSSSTAYMELSSLTSEDSAVYYCARWRDYDRDWYFDVWGAGTTVIVSS
VL: DIVMTQSPATLSVTPGDRVSLSCRASQSIRDYLYWYQQKSHESPRLLIKYASQSISGIPSRFSGSGSGSDFTLSINSVEPEDVGVYYCQNGHSFPYTFGGGTKLEIK
[1]
  Kd: 30.5 nM
[2]
  EC50: 15.3 nM
